Experimental data published in article PMC4894380.

Biological target: MqsA (Escherichia coli (strain of the protein …, UniProt Q46864 1-131))
Test: EMSA; shift at 50-, 100- and 200-fold excess MqsA; 10 mM Tris-HCl pH 7.5, 50 mM KCl, 1 mM DTT, 1 ug poly(dI.dC), 30-50 fmol labeled probe, ambient temperature, 1 h; 6% gel, 0.5x TBE

Sequence of MqsA (Escherichia coli (Q46864 whole entry): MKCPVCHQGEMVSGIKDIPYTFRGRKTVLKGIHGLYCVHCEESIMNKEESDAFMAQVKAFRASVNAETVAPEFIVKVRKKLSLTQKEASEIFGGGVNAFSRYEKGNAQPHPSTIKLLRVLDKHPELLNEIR

B1: p-csgD native palindrome 30-mer (dsDNA)
DNA 1: ACTTAATAAAACCTTAAGGTTAACATTTTA
DNA 2: TAAAATGTTAACCTTAAGGTTTTATTAAGT
binding result: binds
